According to US20120066777A1 (SHIONOGI, published 2012):

B1: 3H6 antibody (antibody, IgG2b, V domains shown)
VH: QIQLVQSGPELKKPGETVKISCKASGYTFTNYGMIWVKQAPGKDLKWMAWINTYSGEPTCADDFKGRFAFSLETSASTAYLQINNLKNEDMATYFCARDDGYYGYFDYWGQGTTLTVSS
VL: DVVMTQTPLSLPVSLGDQASISCRSSQTLVHSDGNTYLHWYLQKPGQSPKLLIYKISNRFSGVPDRFSGSGSGTDFTLKISRVEAEDLGVYFCSQSTHVPPTFGGGTKLEIKR
notes: Mouse hybridoma monoclonal, isotype IgG2b; From a mouse immunized with antigen 1 (human CCDC3 C-terminus peptide 259-270 conjugated to KLH); Used biotinylated as capture antibody in the sandwich ELISA; also called human anti-CCDC3 antibody 3H6
B2: 6G12 antibody (antibody, IgG1, V domains shown)
VH: QVQLQQPGAELVRPGASVKMSCKASGYTFSSYLMDWVKQRPGQGFECIGNINPNTGSTIYNERFKGKAKLTVDKSSSTAYMQLISLTSEDSAVYYCAADGYYAPFTYWGQGTLVTVSA
VL: DIVMTQAAPSVPVTPGESVSISCRSSKSLLHNNGNTYLYWFLQRPGQSPQLLIYRMSNLASGVPDRFSGSGSGTAFTLRISRVEAEDVGVYYCMQHLEYPFTFGAGTKLELKR
notes: Mouse hybridoma monoclonal, isotype IgG1; From a mouse immunized with antigen 3 (human recombinant CCDC3); Used biotinylated as capture antibody in the sandwich ELISA; also called human anti-CCDC3 antibody 6G12
B3: 11E10 antibody (antibody, IgG2b, V domains shown)
VH: QVQLQQSGPELVKPGASVKISCKASGYSFRSYYIHWMKQSPGQGLEWIAWIYPGGGKIYYNDNEKFKDKVTLTADTSSSTAYMQLTGLTSEDSAVYFCARWGGYYVGSILDYWGQGTSVTVSS
VL: DGDIVMTQSQKFLSTSVGDRVSVTCKASQNVDNNVAWYQQRPGQSPKPLIYLTSSRYSGVPDRFTGSGSGTDFTLTITNVQSEDLAEYFCQQYKTYPLTFSVGTKLELKRA
notes: Mouse hybridoma monoclonal, isotype IgG2b; From a mouse immunized with antigen 2 (human recombinant CCDC3-KLH conjugate); also called human anti-CCDC3 antibody 11E10

Assays:
[1] = target: T1, human CCDC3 protein C-terminus partial peptide (259-270) (human, PEO-maleimide activated biotin on the added N-terminal Cys); experiment: raised against the peptide-KLH; hybridoma screened by ELISA on the biotin-labelled peptide
T1 construct: the immunogen was the 12 mer conjugated to KLH; also called biotin-human CCDC3 protein C-terminus region peptide
Description: Specific antibody producing cells were screened 10 days after the cells were fused. Screening was performed by ELISA, as follows. A Tris buffer (50 mM Tris-HCl, pH 7.5, 35 μl) containing anti-mouse IgG antibodies (0.35 μg; Shibayagi Co., Ltd.) was added to each well of a 384-well microtiter plate (Nunc), and the antibodies were immobilized at 4° C. for 16 hours. The wells were washed once with 90 μl of washing liquid (physiological saline containing 0.01% Tween 20), and left unattended at room temperature for 2 hours for blocking after adding […] of Block Ace (Dainippon Pharma) (anti-mouse IgG antibody-anchored plate). After washing each well once with washing liquid (90 μl), a hybridoma culture supernatant (15 μl) and buffer A (10 μl; 50 mM Tris buffer containing 0.5% bovine serum albumin, 0.01% Tween 80, 0.05% Proclin 150, and 0.5 M NaCl; pH 7.4) were added. When the immunogen was the peptide-KLH conjugate, buffer A (10 μl) containing 0.02 ng of the biotin-human CCDC3 protein C-terminus region peptide and 2 ng of Streptavidin-HRP (PIERCE) was added. When the immunogen was the human recombinant CCDC3 protein or its KLH-conjugate, buffer A (10 μl) containing 1 ng of the biotin-human recombinant CCDC3 protein and 4 ng of Streptavidin-HRP (PIERCE) was added. […] The reaction was stopped by adding 25 μl of 0.5 M sulfuric acid, and absorbance at 450 nm was measured.

[2] = target: T2, human recombinant CCDC3 protein (human, UniProt Q9BQI4 22-270); experiment: displacement ELISA: captured antibody, unlabelled human recombinant CCDC3 (0.01 to 100 nM) against biotin-human recombinant CCDC3
T2 construct: Secreted from Freestyle293 cells, purified from culture supernatant, 3xFlag tag removed with thrombin (31 kDa); the C-terminus at 270 follows from the C-terminus peptide 259-270; Also used biotin-labelled (PEO-maleimide biotin) as tracer; also called human CCDC3 recombinant protein; human CCDC3 protein
T2 sequence: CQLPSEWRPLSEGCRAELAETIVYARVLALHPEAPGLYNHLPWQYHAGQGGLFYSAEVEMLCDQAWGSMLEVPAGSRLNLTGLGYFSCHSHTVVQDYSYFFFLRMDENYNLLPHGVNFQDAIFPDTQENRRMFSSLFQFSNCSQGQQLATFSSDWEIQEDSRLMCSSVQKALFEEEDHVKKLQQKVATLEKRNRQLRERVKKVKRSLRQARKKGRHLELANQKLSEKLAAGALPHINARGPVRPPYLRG
Description: A buffer A containing 10 μl of CCDC3 antibody was added to the anti-mouse IgG antibody-anchored plate, and 10 μl of 0.01 to 100 nM human recombinant CCDC3 was added. The mixture was allowed to react at 4° C. for 16 hours after adding buffer A (10 μl) that contained 1 ng of biotin-human recombinant CCDC3 protein and 4 ng of Streptavidin-HRP (PIERCE). Each well was washed three times with washing liquid (90 μl), and 25 μl of TMB+Substrate-Chromogen (DAKO) was added to develop color at room temperature for 30 min. The reaction was stopped by adding 25 μl of 0.5 M sulfuric acid, and absorbance at 450 nm was measured.

Binder | binding result [1] | IC50 [2] [nM]
B1 | binds | 9.4
B2 | – | 3.2
B3 | – | 0.1
